Experimental findings from patent publication US20210171647A1 (WUXI BIOLOGICS SHANGHAI, published 2021) are described below.

Test in all cases: ELISA, antibody coated, OX40-ECD.His mutant supernatant; relative to silent alanine substitutions;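 further: captured OX40 mutant protein detected with HRP-labelled anti-His antibody, absorbance read-out, scaled to the mean signal of control mutants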
Background: An ELISA detects its analyte on a solid surface through an enzyme-linked reagent.

One test deals with T1, human OX40-ECD.His F133A (human, UniProt P43489 29-214).
T1 construct: extracellular domain; not shown: C-terminal His-tag
T1 sequence (looked up): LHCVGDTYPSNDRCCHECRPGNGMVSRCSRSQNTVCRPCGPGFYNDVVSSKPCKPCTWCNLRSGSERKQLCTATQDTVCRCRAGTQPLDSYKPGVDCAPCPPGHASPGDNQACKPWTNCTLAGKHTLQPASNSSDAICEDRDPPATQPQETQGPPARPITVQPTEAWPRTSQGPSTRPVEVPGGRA

Another test deals with T2, human OX40-ECD.His N61A (human, UniProt P43489 29-214).
T2 construct: extracellular domain; not shown: C-terminal His-tag
T2 sequence (looked up): T1 sequence (looked up) with N33A, A105F

The target of another test is T3, human OX40-ECD.His P37A (human, UniProt P43489 29-214).
T3 construct: extracellular domain; not shown: C-terminal His-tag
T3 sequence (looked up): T1 sequence (looked up) with P9A, A105F

Another test concerns the target T4, human OX40-ECD.His P80A (human, UniProt P43489 29-214).
T4 construct: extracellular domain; not shown: C-terminal His-tag
T4 sequence (looked up): T1 sequence (looked up) with P52A, A105F

The next test deals with T5, human OX40-ECD.His G131A (human, UniProt P43489 29-214).
T5 construct: extracellular domain; not shown: C-terminal His-tag
T5 sequence (looked up): T1 sequence (looked up) with G103A, A105F

Another test has as its target T6, human OX40-ECD.His W144A (human, UniProt P43489 29-214).
T6 construct: extracellular domain; not shown: C-terminal His-tag
T6 sequence (looked up): T1 sequence (looked up) with A105F, W116A

For another test, the target named is T7, human OX40-ECD.His K142A (human, UniProt P43489 29-214).
T7 construct: extracellular domain; not shown: C-terminal His-tag
T7 sequence (looked up): T1 sequence (looked up) with A105F, K114A

A further test deals with T8, human OX40-ECD.His A150G (human, UniProt P43489 29-214).
T8 construct: extracellular domain; not shown: C-terminal His-tag
T8 sequence (looked up): T1 sequence (looked up) with A105F, A122G

In a further test the target is T9, human OX40-ECD.His D170A (human, UniProt P43489 29-214).
T9 construct: extracellular domain; not shown: C-terminal His-tag
T9 sequence (looked up): T1 sequence (looked up) with A105F, D142A

A further test addresses T10, human OX40-ECD.His D117A (human, UniProt P43489 29-214).
T10 construct: extracellular domain; not shown: C-terminal His-tag
T10 sequence (looked up): T1 sequence (looked up) with D89A, A105F

Where a chain is given by its changes, count along the chain named.

Description for human OX40-ECD.His A150G: (§1) After interacting with the supernatant that contains quantified OX40 mutants or human OX40-ECD.His protein, HRP conjugated anti-His antibody (1:5000, GenScript-A00612, CHN) was added as detection antibody. Absorbance was normalized according to the average of control mutants.
Description for human OX40-ECD.His D117A: as §1
Description for human OX40-ECD.His D170A: as §1
Description for human OX40-ECD.His F133A: as §1
Description for human OX40-ECD.His G131A: as §1
Description for human OX40-ECD.His K142A: as §1
Description for human OX40-ECD.His N61A: as §1
Description for human OX40-ECD.His P37A: as §1
Description for human OX40-ECD.His P80A: as §1
Description for human OX40-ECD.His W144A: as §1

B1: 1.134.9-u1-IgG1L (antibody, V domains shown)
VH: QVQLQESGPGLVKPSGTLSLTCAVSGGSISSYNWWSWVRQPPGKGLEWIGEIYHGGNTNYNPSLKSRVTMSVDNSKNQFSLKLSSVTAADTAVYYCARAPGDWGGSPYFDFWGQGTLVTVSS
VL: SSELTQDPAVSVALGQTVRITCQGDNLRTYYASWYQQKPGQAPILLIYGRNKRPSGIPDRFSGSSSGNTASLTITGAQAEDEAAYYCNSRDSSGNPVVFGGGTKLTVL
notes: fully human IgG1, lambda
Take B1: the “Fold Change” value with human OX40-ECD.His F133A worked out at 0.627; with human OX40-ECD.His N61A it was 0.99; with human OX40-ECD.His P37A, 1.01; with human OX40-ECD.His P80A it was 0.944; with human OX40-ECD.His G131A, 0.958; in the test with human OX40-ECD.His W144A it was 0.881. The “Fold Change” value is 0.921 in the test with human OX40-ECD.His K142A, 0.96 with human OX40-ECD.His A150G, 1.01 with human OX40-ECD.His D170A and 0.951 with human OX40-ECD.His D117A.
